In patent US20160194402A1 (ADURO BIOTECH HOLDINGS EUROPE B V, published 2016) one finds IC50 and EC50 data, which are given here for nine molecules.

In general, IC50 refers to the point on the concentration scale where inhibition reaches its midpoint. A word on the EC50: it is the midpoint of the concentration-response curve.

Bounds are passed on as bounds.

The target in test [1] is recombinant hCD70 (CD70(h)-muCD8 fusion Protein, Ancell, cat. no. ANC-537-030) (mouse; human). As to the kind of experiment: cell-based competition ELISA: biotinylated CD70(h)-muCD8 (0.5 ug/ml) binding to CHO-K1.CD27 cells, Streptavidin-HRP. (In general: ELISA stands for enzyme-linked immunosorbent assay.)
For test [2], the target named is T1, human CD70 (cellularly expressed hCD70) (human, UniProt P32970 1-193).
T1 construct: whole, on cells; also called CHO-K1.hCD70; CHO-K1.CD70
T1 sequence (looked up): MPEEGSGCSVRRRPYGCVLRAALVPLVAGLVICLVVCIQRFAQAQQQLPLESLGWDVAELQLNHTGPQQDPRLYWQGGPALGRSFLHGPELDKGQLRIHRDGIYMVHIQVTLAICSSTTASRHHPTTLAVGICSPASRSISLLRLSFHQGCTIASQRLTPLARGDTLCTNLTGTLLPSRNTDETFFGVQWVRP
As to the kind of experiment: cell ELISA on CHO-K1.hCD70 cells, goat anti-mouse IgG-HRP. Here is the method:
Cell-based ELISA experiments using purified hCD70 antibodies were performed to determine binding activities of hCD70 to cellularly expressed hCD70. In this cell-ELISA, all incubation steps were followed by a wash step with PBST (PBS with 0.01% Tween 20). CHO-K1.hCD70 cells were seeded (40,000 cells/well) in tissue culture plates and incubated overnight at 37° C. The next day, culture medium was removed and cells were incubated for one hour with (dilutions of) purified antibodies at 37° C. Next, cells were washed with PBST and incubated for one hour at 37° C. with 1:1,000 goat-anti-mouse IgG-HRP (Southern Biotechnology, #1030-05). Subsequently, cells were washed 6 times with PBST and anti-hCD70 immunoreactivity was visualized with 100 μl TMB Stabilized Chromagen (Invitrogen, cat. no. SB02). Reactions were stopped with 100 μl 0.5 M H₂SO₄ and absorbances were read at 450 and 620 nm. […] Calculated EC₅₀, representing the concentration at which 50% of the total binding signal is observed are represented in Table 3 using 2F2 anti-hCD70 antibody (Pelicluster) as a reference.

Test [3] deals with T1, human CD70 (cellularly expressed hCD70). Description: cell ELISA on CHO-K1.hCD70 cells, goat anti-mouse IgG-HRP (reference antibody, Example 3).
Test [4] deals with recombinant hCD70 (CD70(h)-muCD8 fusion Protein, Ancell, cat. no. ANC-537-030) (mouse; human). As to the kind of experiment: cell-based competition ELISA: biotinylated CD70(h)-muCD8 (0.5 ug/ml) binding to CHO-K1.hCD27 cells, Streptavidin-HRP (reference antibody, Example 3).
The target in test [5] is T2, recombinant hCD70 (CD70(h)-muCD8 fusion Protein, Ancell, cat. no. ANC-537-030) (mouse; human, UniProt P01731 28-196; P32970 39-193, biotin (position not stated; detected with Streptavidin-HRP, bound to streptavidin beads)).
T2 construct: Bought fusion protein; also called CD8-hCD70; biotin-hCD8-hCD70 recombinant protein
As to the kind of experiment: cell-based competition ELISA: biotinylated CD70(h)-muCD8 (0.5 ug/ml) binding to CHO-K1.hCD27 cells, Streptavidin-HRP. Here is the method:
Blocking properties of the purified antibodies were studied using a cell-based competition assay. The CHO-K1.CD27 assay works along the following principles: CHO-K1.CD27 cells were seeded (40,000 cells/well) in a 96-well plate and incubated overnight at 37° C. After medium removal, 50 μl recombinant hCD70 (CD70(h)-muCD8 fusion Protein (Ancell, cat. no. ANC-537-030) (0.5 μg/ml) and 50 μl of different dilutions of purified anti-hCD70 antibodies were added.
After 1 hour incubation at room temperature, the wells were washed 3 times with PBST. Next, 100 μl/well Streptavidin-HRP conjugate (BD Pharmingen, cat. no. 554066) (1:5,000) was added and cells were incubated for one hour at 37° C. After 6 final washes with PBST TMB Stabilized Chromagen (Invitrogen, cat. no. SB02) (100 μl/well) was added. The reaction was stopped by the addition of 100 μl 0.5 M H₂SO₄. Absorbencies were read at […] and 620 nm. Reference antibody: anti-hCD70, clone 2F2 (Pelicluser). […] Calculated IC₅₀ values of hCD70 antibodies and the reference 2F2 anti-hCD70 antibody, which represent the concentration at which half of the inhibition is observed, are presented in Table 3.

Test [6] deals with recombinant hCD70 (CD70(h)-muCD8 fusion Protein, Ancell, cat. no. ANC-537-030) (mouse; human). Described as above.

T2 sequence (P01731 other isoform, or with tags, fused parts or gaps): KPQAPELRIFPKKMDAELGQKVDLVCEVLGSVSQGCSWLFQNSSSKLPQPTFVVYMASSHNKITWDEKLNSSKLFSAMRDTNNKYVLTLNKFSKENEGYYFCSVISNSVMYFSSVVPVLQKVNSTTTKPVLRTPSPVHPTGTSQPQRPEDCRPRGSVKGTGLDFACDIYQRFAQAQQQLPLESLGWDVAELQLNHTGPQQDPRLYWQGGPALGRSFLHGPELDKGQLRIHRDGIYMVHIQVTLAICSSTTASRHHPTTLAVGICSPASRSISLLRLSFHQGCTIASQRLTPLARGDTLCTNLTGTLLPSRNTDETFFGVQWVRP

Consider Ki-24 (antibody), for which, in test [1], the IC50 turned out to be 1.5 nM. Moreover, the EC50 in test [2] was 0.035 nM.
2F2 (CLB70/2) (antibody): the EC50 was 0.13 nM in test [3] and 0.014 nM in test [2]. The IC50 in test [4] is below 2.6 nM; in test [1], 0.4 nM.
In the case of BU69 (antibody), the IC50 in test [1] came to 0.96 nM. For the same molecule, the EC50 in test [2] stood at 0.017 nM.

B1: hCD70.23 (antibody, IgG1, V domains shown)
VH: QVQLQQSGPEVVRPGVSVKISCKGSGYTFTDYAMHWVKQSHAKSLEWIGVISTYNGNTNYNQKFKGKATMTVDKSSSTAYMELARLTSEDSAIYYCARDYLDYWGQGTTLTVSS
VL: DIVMTQSPSSLTVTAGEKVTMSCKSSQSLLNSGNQKNYLTWYQQKPGQPPKLLIYWASTRESGVPDRFTGSGSGTDFTLTISSVQAEDLAVYYCQNDYSYPFTFGSGTKLEIK
notes: Mouse monoclonal purified from hybridoma supernatant
Consider B1, for which the IC50 in test [5] was above 330 nM. In addition, in test [2], the midpoint of the response, the EC50, lay at 0.17 nM.

B2: hCD70.39 (antibody, part only; not given: light chain, IgG1, V domains shown, part only)
VH: QGQMQQSGAELVKPGASVKLSCKTSGFTFSSNYISWLKQKPGQSLEWIAWIYAGTGGTNYNQKFTGKAQLTVDTSSSTAYIQFSSLTTEDSAIYYCARLYGYYFDYWGQGTTLTVSS
As to B2, in test [6], the IC50 was above 330 nM. In test [2], this molecule showed an EC50 of 0.34 nM.

B3: hCD70.32 (antibody, IgG1, V domains shown)
VH: QVQLQQSGDDLVKPGASVKLSCKASGYTFTSYWINWIKQRPGQGLEWIGRIAPGSGSTYYSKIFKGKATLTVDTSSSTAYIQLSSLSSEDSAVYFCSRGDYGDYWGQGTTLTVSS
VL: DIVMTQSHKFMSTSVGDRVSITCKASQDVGTAVAWYQQKPGESPKLLIYWASTRHTGVPDRLTGSGSGTDFTLTISNVHSEDLADYFCQQYSGYPLTFGDGTKLEL
notes: as for B1
Turning to B3, the IC50 in test [5] is 76 nM. In test [2], this molecule displayed a concentration for a half-maximal effect (EC50) of 0.15 nM.

B4: hCD70.21 (antibody, IgG1, V domains shown)
VH: QVQLQQPGAELVKPGTSVKLSCKASGYNFTSYWINWVKLRPGQGLEWIGDIYPGSGSTNYNEKFKSKATLTVDTSSSTAYMQLSSLASEDSALYYCARGHYGSSYGFDYWGQGTTLTVSS
VL: DIVLTQSPASLAVSLGQRATISCRASKSVSTSGYSYMHWYQQKPGQPPKLLIYLASNLESGVPARFSGSGSGTDFTLNIHPVEEEDAATYYCQHSRELPLTFGAGTKLELK
notes: as for B1
Take B4: the IC50 in test [5] was above 330 nM. In test [2], this molecule gave an EC50 of 0.26 nM.

B5: hCD70.36 (antibody, IgG1, V domains shown)
VH: EVQLQQSGPELVKTGASVKISCKASGYSFTGYYMHWVKQSHGKSLEWIGYISCYNGATSYNQKFKGKATFTVDTSSSTAYMQFNSLTSEDSAVYYCARGGNWDVEYAMDYWGQGTSVTVSS
VL: DIVLTQSPASLAVSLGQRATISCRASKSVSTSGYSYMHWYQQKPGQPPKLLIYLASNLESGVPARFSGSGSGTDFTLNIHPVEEEDAATYYCQHSRELPFTFGSGTKLEIK
notes: as for B1
On to B5, for which, in test [5], the IC50 is above 330 nM. In test [2], this molecule yielded an EC50 of 0.3 nM.

B6: hCD70.34 (antibody, IgG1, V domains shown)
VH: QVQLKESGPGLVAPSQSLSITCTVSGFSLTSYGVSWVRQPPGKGLEWLGVIWGDGTTNYHSALISRLSISKDNSKSQVFLKLNSLQIDDTATYYCAKPGDYYGSSYWYFDVWGAGTTVTVSS
VL: DVVLTQTPLSLPVNIGDQASISCKSTKSLLNSDGFTYLDWYLQKPGQSPQLLIYFVSNRFSGVPDRFSGSGSGTDFTLKISRVEADDLGVYYCFQSNYLPYTFGGGTKLEIK
notes: as for B1
Consider B6, for which the IC50 in test [5] came to 109 nM. Also, the EC50 in test [2] stood at 0.21 nM.
